Laboratory results as given in patent US20230416305A1 (published 2023).
Bridges are numbered along the chain shown (N, C = ends). Where no end group is shown, it is not given here. [ ]: non-standard residue; d: D form. S5 = C=CCCC[C@](C)(N)C(=O)O

T1: ANK domain of Notch1 intracellular segment N1ICD (UniProt P46531 1872-2126)
T1 chain: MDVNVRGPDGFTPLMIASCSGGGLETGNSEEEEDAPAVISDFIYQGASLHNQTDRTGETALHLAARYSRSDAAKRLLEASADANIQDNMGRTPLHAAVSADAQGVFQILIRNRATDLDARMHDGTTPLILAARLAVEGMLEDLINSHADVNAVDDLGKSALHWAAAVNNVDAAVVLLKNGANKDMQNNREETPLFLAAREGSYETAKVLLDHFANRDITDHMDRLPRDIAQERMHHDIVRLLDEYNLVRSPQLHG

T2: ANK1 (α-helical region of the ANK domain of N1ICD) (UniProt P46531 1927-1956)
T2 chain: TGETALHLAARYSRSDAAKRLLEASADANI


How the values were obtained:
[1] = target: T1, ANK domain of Notch1 intracellular …; assay: SPR
[2] = target: T1, ANK domain of Notch1 intracellular …; assay: SPR
[3] = target: T1, ANK domain of Notch1 intracellular …; assay: SPR; FIG. 1C
[4] = target: T1, ANK domain of Notch1 intracellular …; assay: SPR; FIG. 1D
[5] = target: ANK2; assay: SPR
[6] = target: ANK3; assay: SPR
[7] = target: ANK6; assay: SPR
[8] = target: ANK4; assay: SPR
[9] = target: ANK5; assay: SPR
[10] = target: T2, ANK1 (α-helical region of the ANK …); assay: SPR

Row | Kd [1] [µM] | Binder | also measured
1 | 0.0961 | AAKRIFYQLLSKQL [mAH2-1] | –
2 | 0.0839 | YAKRIFYQLLAKQL [mAH2-11] | –
3 | – | LLEKKRQY [AH1] | Kd [2]: 0.213 µM
4 | 0.286 | YAKRIFYQALSKQL [mAH2-9] | –
5 | – | YAKRIFYQLLSKQL [modified AH2 (mAH2), modified α-helice 2] | Kd [3]: 0.0604 µM; Kd [4]: 0.0452 µM
6 | 0.000898 | YAKRI[S5]YQLLSK[S5]L (staple 6-13) [SAH-mAH2-5 (stapled α-helix-modified α-helix 2-5)] | –
7 | 0.0258 | [S5]AKRIFY[S5]LLSKQL (staple 1-8) [SAH-mAH2-4] | –
8 | 0.0977 | Y[S5]KRI[S5]YQLLSKQL (staple 2-6) [SAH-mAH2-2] | –
9 | 0.0874 | YAKRIFYALLSKQL [mAH2-8] | –
10 | 0.0745 | YAKAIFYQLLSKQL [mAH2-4] | –
11 | – | YAKRIFYQLLSKEL [AH2] | Kd [5]: 23.3 µM; Kd [6]: 85.8 µM; Kd [7]: 64.2 µM; Kd [8]: 66.1 µM; Kd [9]: 42.8 µM
12 | 0.0636 | YAKRIAYQLLSKQL [mAH2-6] | –
13 | 0.0782 | YAKRIFYQLLSAQL [mAH2-12] | –
14 | 0.0511 | YAARIFYQLLSKQL [mAH2-3] | –
15 | 5.98 | YAKRIFYQLLSKQA [mAH2-14] | –
16 | 0.0575 | YAKRAFYQLLSKQL [mAH2-5] | –
17 | 0.0555 | YAKRIFYQLASKQL [mAH2-10] | –
18 | – | YAKRIFYQLLSKEL [AH2 (α-helix 2 of N1DARP)] | Kd [2]: 0.0604 µM; Kd [10]: 4.34 µM; Kd [4]: 0.0604 µM
19 | 0.099 | YAKRIFYQLLSKAL [mAH2-13] | –
20 | 0.134 | [S5]AKR[S5]FYQLLSKQL (staple 1-5) [SAH-mAH2-1] | –
